Assay results as given in US20120015890A1 (ARGOS THERAPEUTICS, published 2012).
Where a chain is given by its changes, count along the chain named.

B1: recombinant human CD83ext protein (soluble extracellular domain of human CD83) (receptor)
chain: GSPGTPEVKVACSEDVDLPCTAPWDPQVPYTVSWVKLLEGGEERMETPQEDHLRGQHYHQKGQNGSFDAPNERPYSLKIRNTTSCNSGTYRCTLQDPDGQRNLSGKVILRVTGCPAQRKEETFKKYRAEI
notes: Expressed in E. coli as a GST fusion and cleaved with thrombin; also called hCD83ext; soluble CD83
B2: hCD83ext_mut129_Cys to Ser (receptor)
chain: B1 chain with C114S
notes: Expressed in E. coli as a GST fusion and cleaved with thrombin; Monomeric; also called hCD83ext mut129 Cys to Ser mutant

Legend:
[1] = target: the molecule itself; assay: SDS-PAGE with and without 2-mercaptoethanol; band at about 25 kDa without reducing agent
Protocol: The HPLC-purified recombinant human CD83ext protein (cloning and expression as described in example 1, purification as described in example 2 was analysed with the Laemmli SDS-PAGE system. To identify possible oligomeric forms of CD83 2-mercaptoethanol (ME) has been omitted from the sample buffer (2% SDS, 5% 2-Mercaptoethanol (ME), 10% Glycerol, 0.2 mM EDTA, 0.005% bromphenolblue, 62.5 mM Tris pH6.8). In the absence of this reducing agent, the intra- and interchain disulfide bonds of CD83 remain intact. The reduced and non-reduced protein samples were both incubated for 5 min at 95° C. and compared with each other by SDS-PAGE (see FIG. 7). During electrophoresis, the mobilities of oligomeric SDS-proteins is lower than those of their fully denatured SDS-polypeptide components. Without ME an upper band appears at the estimated size of a CD83-dimer (about 25 kDa), while the monomeric CD83 band (about 14 kDa) is fainting. Westernblot analysis using the anti-CD83 antibody CD83-1G11 (Lechmann et al., Protein Expression and Purification 24:445-452 (Mar. 2, 2002)) confirmed the specificity of the protein bands. Thus, hCD83ext is a disulfide-linked homodimeric protein.

[2] = target: the molecule itself; assay: SDS-PAGE with and without 2-mercaptoethanol
Source text: The purified hCD83ext_mut129_Cys to Ser was compared to purified hCD83ext by SDS-PAGE (see FIG. 9). […] Under non-reducing conditions no CD83-dimer could be detected with the mutant CD83 protein. So the 5th carboxyterminal cysteine of the extracellular CD83 domain is necessary for the creation of homodimers. Westernblot analysis confirmed specificity of the bands (data not shown).

Row | Protein | binding result [1] | binding result [2]
1 | B1 | binds | 
2 | B2 |  | no binding
